One test deals with T1, Human Cadherin-19 (human, UniProt Q9H159 44-772).
T1 construct: also called CDH19; huCDH19
The test can be described thus: FACS, endogenous CDH-19 on CHL-1 and Colo699 tumor cells. Background: In flow cytometry, cells or beads pass a laser one at a time.

Test [1] addresses T2, huCDH19(44-249)::muCDH19(248-770) with Flag tag (construct C, Hu EC1-2) (human/mouse chimera).
T2 construct: leader left out; the entry starts at residue 44; also called C137896
The test can be described thus: flow cytometry, transfected 293T cells.
From the text: (§1) The experiment included assaying the anti-CDH19 antibodies against mouse Cadherin19 to determine suitability for binning on these human/mouse chimeras.

The target in test [2] is T3, huCDH19(44-141)::muCDH19(140-770) with Flag tag (construct B, Hu EC1) (human/mouse chimera).
T3 construct: leader left out; the entry starts at residue 44; also called C137897
Briefly: flow cytometry, transfected 293T cells.
From the text: as §1

The target of test [3] is huCDH19(44-772) with Flag tag (construct A, Hu EC1-5) (human, UniProt Q9H159 44-772). The test can be described thus: flow cytometry, transfected 293T cells.
From the text: as §1
The target in another test is T4, Cyno Cadherin-19 (cynomologous monkey (Macaca …, UniProt Q9H159 44-772 (human entry))).
T4 construct: also called cynomologous monkey CDH-19
T4 chain: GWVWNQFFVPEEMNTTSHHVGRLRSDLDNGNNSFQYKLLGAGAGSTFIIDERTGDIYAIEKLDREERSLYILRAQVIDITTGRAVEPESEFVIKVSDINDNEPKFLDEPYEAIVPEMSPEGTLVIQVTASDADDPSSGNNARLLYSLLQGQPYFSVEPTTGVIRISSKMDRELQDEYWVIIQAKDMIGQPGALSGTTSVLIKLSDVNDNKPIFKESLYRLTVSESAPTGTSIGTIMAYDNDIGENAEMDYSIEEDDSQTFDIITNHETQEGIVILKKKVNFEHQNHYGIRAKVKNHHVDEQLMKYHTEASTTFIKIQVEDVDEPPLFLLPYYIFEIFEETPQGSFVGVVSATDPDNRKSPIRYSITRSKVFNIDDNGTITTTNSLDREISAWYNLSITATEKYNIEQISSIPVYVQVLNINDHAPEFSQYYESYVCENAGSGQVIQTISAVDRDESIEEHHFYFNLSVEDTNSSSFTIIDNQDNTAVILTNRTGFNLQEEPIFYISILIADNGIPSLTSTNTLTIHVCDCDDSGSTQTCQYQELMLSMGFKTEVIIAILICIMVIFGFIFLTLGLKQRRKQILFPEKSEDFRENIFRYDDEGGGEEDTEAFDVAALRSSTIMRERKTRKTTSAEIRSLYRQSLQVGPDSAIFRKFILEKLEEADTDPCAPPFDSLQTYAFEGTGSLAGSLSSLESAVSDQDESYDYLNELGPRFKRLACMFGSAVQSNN
Briefly: FACS, recombinant cynomologous CDH-19.

Experimental findings from patent US20220127354A1 (Amgen, published 2022) are described below.

Method for Human Cadherin-19: FACS binding assays were performed to evaluate the binding of the anti-Cadherin-19 receptor specific antibodies to endogenous Cadherin-19 receptor expressed on the CHL-1 tumor cell lines.
FACs assays were performed by incubating hybridoma supernatants with 10,000 to 25,000 cells in PBS/2% Fetal bovine serum/2 mM Calcium Chloride at 4° C. for one hour followed by two washes with PBS/2% Fetal bovine serum/2 mM Calcium Chloride. Cells were then treated with florochrome-labeled secondary antibodies at 4° C. followed by one wash. The cells were resuspended in 50 μl of PBS/2% FBS and antibody binding was analyzed using a FACSCalibur™ instrument.

B1: hu anti-<huCDH19> 25G10.1 (Ab ID 13883) (antibody, human IgG1, kappa, V domains shown)
VH: QVQLQESGPGLVKPSETLSLTCTVSGGSISGYYWSWIRQPPGKGLEWIGYIYYIGSTNYNPSLKSRVTMSVDTSKNQFSLKLSSVTAADTAVYYCARDGSSGWYRWFDPWGQGTLVTVSS
VL: EIVLTQSPGTLSLSPGERATLSCRASQSVSSSYLAWYQQKPGQAPRLLIFGASSRATGIPDRFSGSGSGTDFTLTISRLEPEDFAVYHCQQYGNSPLTFGGGTKVEIKR
notes: huIgG1z / huKLC; Bin 3
As for B1, the binding result with Human Cadherin-19 is reported as “binds”.

B2: hu anti-<huCDH19> 16C1.1 (Ab ID 13875) (antibody, human IgG1, kappa, V domains shown)
VH: QVQLQESGPGLVKPSETLSLTCTVSGGSISGYYWSWIRQPPGKGLEWIGYIYYIGSTNYNPSLKSRVTMSIDTSKNQFSLTLSSLTAADTAVYFCARDGSSGWYRWFDPWGQGTLVTVSS
VL: EIVLTQSPGTLSLSPGERATLSCRASQSVSSSYLAWYQQKPGQAPRLLIFGASSRATGIPDRFSGSGSGTDFTLTISGLEPEDFAVYHCQQYGNSPLTFGGGTKVEIKR
notes: huIgG1z / huKLC; Bin 3
For B2, in the test with Human Cadherin-19, the binding result is reported as “binds”.

B3: hu anti-<huCDH19> 26D1.1 (1-469)(R27G,G82R) VH::huIgG1z + 26D1.1 (1-235)(H1Q,S7P) VL::huLLC-C2 (Ab ID 14088) (antibody, V domains shown)
VH: QVQLVQSGAEVKKPGASVKVSCKASGYTFTSYYMSWVRQAPGQGLEWMGIIHPSGGDTTYAQKFQGRVTMTRDTSTSTVYMELSSLRSEDTAVYYCARGGIKLWLHFDYWGQGTLVTVSS
VL: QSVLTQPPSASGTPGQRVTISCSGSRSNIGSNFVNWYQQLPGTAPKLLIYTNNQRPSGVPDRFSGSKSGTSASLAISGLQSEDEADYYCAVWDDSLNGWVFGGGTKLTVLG
notes: Engineered variant of 26D1; the entries already carry the changes; Bin 2
Turning to B3, the binding result in test [1], in test [2] and in test [3] was “binds” each time.

B4: hu anti-<huCDH19> 25F8.1 VH::huIgG1z + 25F8.1 (1-235)(K45Q,S102A) VL::huLLC-C2 (Ab ID 14094) (antibody, V domains shown)
VH: QVQLVQSGAEVKKPGASVKVSCKASGYTFTSYYIHWVRQAPGQGLEWMGIINPSGGSTRYAQKFQGRVTMTRDTSTSTVFMELSSLRSEDTAVYYCARGGIQLWLHFDYWGQGTLVTVSS
VL: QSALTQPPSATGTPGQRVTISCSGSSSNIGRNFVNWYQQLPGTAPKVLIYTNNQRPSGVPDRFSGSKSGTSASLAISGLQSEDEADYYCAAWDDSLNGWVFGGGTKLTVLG
notes: Engineered variant of 25F8; the entries already carry the changes; Bin 2
B4: the binding result in test [1], in test [2] and in test [3] was “binds” each time.

B5: hu anti-<huCDH19> 25F8.1 (Ab ID 13880) (antibody, human IgG1, lambda, V domains shown)
VH: QVQLVQSGAEVKKPGASVKVSCKASGYTFTSYYIHWVRQAPGQGLEWMGIINPSGGSTRYAQKFQGRVTMTRDTSTSTVFMELSSLRSEDTAVYYCARGGIQLWLHFDYWGQGTLVTVSS
VL: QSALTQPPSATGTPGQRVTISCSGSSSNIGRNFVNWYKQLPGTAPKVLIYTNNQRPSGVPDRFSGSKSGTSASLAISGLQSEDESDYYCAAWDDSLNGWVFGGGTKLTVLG
notes: huIgG1z / huLLC-C2; Bin 2
Turning to B5, the binding result (in test [1]; in test [2]; in test [3]; with Cyno Cadherin-19; in the test with Human Cadherin-19) was “binds” in each case.

B6: anti-CDH19 antibody 23A10 (Ab ID 13884) (antibody, human IgG1, lambda, V domains shown)
VH: QVQLVESGGGVVQPGRSLRLSCAASGFTFSRYGIHWVRQAPGKGLEWVAVIWYDGSNKYYADSVKGRFTISRDNSKNTLYLLMNSLRAEDSAVYYCARRAGIPGTTGYYYGMDVWGQGTTVTVSS
VL: SYELTQPPSVSVSPGQTASITCSGDRLGEKYVCWYQQKPGQSPILVIYQDNKWPSGIPERFSGSNSGNTATLTISGTQAMDEADYYCQAWDSSTVVFGGGTKLTVLG
notes: Bin 4
As for B6, the binding result in the test with Cyno Cadherin-19 and with Human Cadherin-19 was “binds” throughout.

B7: hu anti-<huCDH19> 20D3.1 (Ab ID 13878) (antibody, human IgG1, lambda, V domains shown)
VH: QVQLVQSGAEVKKPGASVKVSCKVSGYTFTSYFIHWVRQAPGQGLEWMGIINPISVSTSYAQKFQGRVTMTRDTSTSTVFMELSSLRSEDTAVYYCARGGIQLWLHFDYWGQGTLVTVSS
VL: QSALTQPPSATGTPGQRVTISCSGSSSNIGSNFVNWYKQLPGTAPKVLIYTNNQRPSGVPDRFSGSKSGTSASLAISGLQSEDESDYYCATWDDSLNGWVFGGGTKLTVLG
notes: huIgG1z / huLLC-C2; Bin 2; also called 16H2; 23E7
As to B7, the binding result with Cyno Cadherin-19 and with Human Cadherin-19 was “binds” each time.

B8: hu anti-<huCDH19> 19B5.1 (Ab ID 13885) (antibody, human IgG1, lambda, V domains shown)
VH: QVQLVQSGAEVKKPGASVKVSCKVSGYTFTSYFIHWVRQAPGQGLEWMGIINPISVSTSYAQKFQGRVTMTRDTSTSTVFMELSSLRSEDTAVYYCARGGIQLWLHLDYWGQGTLVTVSS
VL: QSALTQPPSTTGTPGQRVTISCSGSRSNIGSNFVNWYKQLPGTAPKVLIYTNNQRPSGVPDRFSGSKSGTSASLAISGLQSEDESDYYCATWDDSMNGWVFGGGTKLTVLG
notes: huIgG1z / huLLC-C2; Bin 2
For the molecule B8, the binding result with Cyno Cadherin-19 and with Human Cadherin-19 was “binds” each time.

B9: hu anti-<huCDH19> 22D1.1 (Ab ID 13879) (antibody, human IgG1, lambda, V domains shown)
VH: QVQLVQSGAEVKKPGASVRVSCKVSGYTFTSYFIHWVRQAPGQGLEWMGIINPISVSTSYAQKFQGRVTMTRDTSTSTVFMELSSLRSEDTAVYYCARGGIQLWLHLDYWGQGTLVTVSS
VL: QSALTQPPSATGTPGQRVTISCSGSSSNIGSNFVNWYKQLPGTAPKVLIYTNNQRPSGVPDRFSGSKSGTSASLAISGLQSEDESDYYCATWDDSMNGWVFGGGTKLTVLG
notes: huIgG1z / huLLC-C2; Bin 2
For B9, the binding result with Cyno Cadherin-19 and with Human Cadherin-19 was “binds” in each case.

B10: hu anti-<huCDH19> 22G10.1 (Ab ID 13877) (antibody, human IgG1, kappa, V domains shown)
VH: EVQLLESGGGLVQPGGSLRLSCAASGFTFSSYAMNWVRQAPGKGLEWVSTISGGGANTYYADSVKGRFTISSDNSKSTLYLQMNSLRAADTAVYHCAKGGMGGYYYGMDVWGQGTTVTVSS
VL: EIVMTQSPVTLSLSLGERATLSCRASQSISSNLAWFQQKPGQAPRLLIYGAFTRATGIPARVSGSGSGTEFTLTISSLQSEDFAVYYCQQYNYWPLTFGGGTKVEIKR
notes: huIgG1z / huKLC; Bin 3
B10: the binding result with Cyno Cadherin-19 and with Human Cadherin-19 was “binds” throughout.

B11: hu anti-<huCDH19> 4B10 (1-471)(R17G,D61E,D72E) VH::huIgG1z + 4B10 (1-236)(H45Q,A90T) VL::huKLC (Ab ID 14055) (antibody, V domains shown)
VH: QVQLVESGGGVVQPGGSLRLSCAASGFTFSSYDMHWVRQAPGKGLEWVAVISYEGTNEYYAESVKGRFTISRDTSKNTLYLQMNSLRAEDTAVYYCARERYFDWSFDYWGQGTLVSVSS
VL: EIVLTQSPGTLSLSPGERATLSCRASQSVSNTYLAWYQQRPGQAPRLLIYGASSRATGIPDRFSGSGSGTDFTLTISSLEPEDFAVYYCQQYSNSWTFGQGTKVEIKR
notes: Engineered variant of 4B10; the entries already carry the changes; Bin 4
On to B11, for which, in test [3], the binding result is “binds”.

B12: hu anti-<huCDH19> 4A9 VH::huIgG1z + 4A9 (1-239)(F47L) VL::huLLC-C1 (Ab ID 14056) (antibody, V domains shown)
VH: QVQLQESGPGLVKPSETLSLTCTVSGGSISGYYWSWIRQPPGKGLEWFAYFSYSGSTNYNPSLKSRVTLSVDTSKNQFSLKLSSVTAADTAVYYCARNWAFHFDFWGQGTLVTVSS
VL: QSVLTQPPSVSGAPGQRVTISCTGSSSNIGTGYAVHWYQQLPGTAPKLLIYGNNNRPSGVPDRFSGSKSGTSASLAITGLQAEDEADYYCQSYDSRLSGWVFGGGTKLTVLG
notes: Engineered variant of 4A9; the entries already carry the changes; Bin 1
Take B12: the binding result in test [1], in test [2] and in test [3] was “binds” throughout.

B13: hu anti-<huCDH19> 4F7 (Ab ID 13591) (antibody, human IgG1, lambda, V domains shown)
VH: QVQLQESGPGLVKPSETLSLTCTVSGGSISSYSWSWIRQPPGKGLEWIGYIYYSGSTNYNPSLKSRVTISLDTSKNQFSLKLSSVTAADTAVYYCARNWAFHFDYWGQGTLVTVSS
VL: QSVLTQPPSVSGAPGQRVTISCTGSSSNIGTGYDVHWYQQLPGTAPKLLIHGNSNRPSGVPDRFSGSKSGTSASLAITGLQAEDEADYYCQSYDSSLSGWVFGGGTRLTVLG
notes: huIgG1z / huLLC-C1; Bin 1
As for B13, the binding result in the test with Cyno Cadherin-19 and with Human Cadherin-19 was “binds” each time.

B14: hu anti-<huCDH19> 4A9 (1-468)(F55I,A56G) VH::huIgG1z + 4A9 (1-239)(F47L) VL::huLLC-C1 (Ab ID 14057) (antibody, V domains shown)
VH: QVQLQESGPGLVKPSETLSLTCTVSGGSISGYYWSWIRQPPGKGLEWIGYFSYSGSTNYNPSLKSRVTLSVDTSKNQFSLKLSSVTAADTAVYYCARNWAFHFDFWGQGTLVTVSS
VL: QSVLTQPPSVSGAPGQRVTISCTGSSSNIGTGYAVHWYQQLPGTAPKLLIYGNNNRPSGVPDRFSGSKSGTSASLAITGLQAEDEADYYCQSYDSRLSGWVFGGGTKLTVLG
notes: as for B12
In the case of B14, the binding result in test [1], in test [2] and in test [3] was “binds” in each case.
